Assay results from patent US20120183570A1 (WASHINGTON STATE UNIVERSITY, published 2012).

Legend:
[1] = target: T1, Human plasma fibronectin (Fn) (human, UniProt P02751-9 32-2240, limits assumed); test: ELISAs with GST domain fusions and Fn
T1 construct: It is treated as the same molecule; also called full-length Fn

[2] = target: T2, Fn gelatin-binding domain (GBD), 40 kDa fragment (human, UniProt P02751 291-630); test: ELISA on GBD-coated wells, anti-GST detection
T2 construct: also called Fn-GBD

[3] = target: T1, Human plasma fibronectin (Fn); test: ELISA, Fn on peptide-coated wells
[4] = target: T3, Fn N-terminal domain (NTD), 30 kDa fragment (human, UniProt P02751 32-290); test: ELISA on NTD-coated wells, anti-GST detection
T3 construct: domain: N-terminal domain (NTD), FN1 1-5; also called 30 kDa NTD; 30-kDa proteolytic fragment from human Fn

[5] = target: T2, Fn gelatin-binding domain (GBD), 40 kDa …; test: ELISA, GST fusion on GBD-coated wells (FIG. 22)
[6] = target: T4, Ovalbumin (UniProt P01012 2-386); test: ELISA on ovalbumin-coated wells, anti-GST detection
T4 construct: also called ovalbumin (negative control)
T4 sequence: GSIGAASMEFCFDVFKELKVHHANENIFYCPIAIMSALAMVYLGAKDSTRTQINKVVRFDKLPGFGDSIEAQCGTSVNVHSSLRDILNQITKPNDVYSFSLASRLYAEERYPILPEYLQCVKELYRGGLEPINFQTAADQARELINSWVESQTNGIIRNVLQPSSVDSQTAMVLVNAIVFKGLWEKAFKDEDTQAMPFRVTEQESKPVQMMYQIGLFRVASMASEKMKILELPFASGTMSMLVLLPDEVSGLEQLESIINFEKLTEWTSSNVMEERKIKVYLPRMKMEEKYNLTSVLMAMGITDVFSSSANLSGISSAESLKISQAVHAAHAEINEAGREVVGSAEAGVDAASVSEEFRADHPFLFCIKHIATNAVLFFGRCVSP

[7] = target: Bovine serum albumin (BSA) (bovine, UniProt P02769 25-607); test: ELISA on BSA-coated wells, anti-GST detection
Bovine serum albumin (BSA), sequence (P02769 25-607 limits assumed): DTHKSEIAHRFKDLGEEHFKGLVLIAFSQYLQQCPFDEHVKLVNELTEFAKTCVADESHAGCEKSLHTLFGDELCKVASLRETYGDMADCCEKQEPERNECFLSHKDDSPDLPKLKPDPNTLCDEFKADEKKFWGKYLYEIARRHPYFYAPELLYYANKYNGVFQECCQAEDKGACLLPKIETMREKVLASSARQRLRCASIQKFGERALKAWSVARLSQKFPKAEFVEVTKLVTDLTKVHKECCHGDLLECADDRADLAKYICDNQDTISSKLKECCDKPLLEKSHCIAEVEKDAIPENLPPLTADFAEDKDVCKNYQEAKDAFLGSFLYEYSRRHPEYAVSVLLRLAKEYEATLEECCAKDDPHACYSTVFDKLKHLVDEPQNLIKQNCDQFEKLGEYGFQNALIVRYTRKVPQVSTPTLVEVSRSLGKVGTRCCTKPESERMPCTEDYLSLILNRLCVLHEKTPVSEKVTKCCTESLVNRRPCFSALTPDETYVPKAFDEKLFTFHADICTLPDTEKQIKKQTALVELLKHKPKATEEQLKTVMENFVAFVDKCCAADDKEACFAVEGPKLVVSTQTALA

T1 sequence (P02751 other isoform, or with tags, fused parts or gaps limits assumed): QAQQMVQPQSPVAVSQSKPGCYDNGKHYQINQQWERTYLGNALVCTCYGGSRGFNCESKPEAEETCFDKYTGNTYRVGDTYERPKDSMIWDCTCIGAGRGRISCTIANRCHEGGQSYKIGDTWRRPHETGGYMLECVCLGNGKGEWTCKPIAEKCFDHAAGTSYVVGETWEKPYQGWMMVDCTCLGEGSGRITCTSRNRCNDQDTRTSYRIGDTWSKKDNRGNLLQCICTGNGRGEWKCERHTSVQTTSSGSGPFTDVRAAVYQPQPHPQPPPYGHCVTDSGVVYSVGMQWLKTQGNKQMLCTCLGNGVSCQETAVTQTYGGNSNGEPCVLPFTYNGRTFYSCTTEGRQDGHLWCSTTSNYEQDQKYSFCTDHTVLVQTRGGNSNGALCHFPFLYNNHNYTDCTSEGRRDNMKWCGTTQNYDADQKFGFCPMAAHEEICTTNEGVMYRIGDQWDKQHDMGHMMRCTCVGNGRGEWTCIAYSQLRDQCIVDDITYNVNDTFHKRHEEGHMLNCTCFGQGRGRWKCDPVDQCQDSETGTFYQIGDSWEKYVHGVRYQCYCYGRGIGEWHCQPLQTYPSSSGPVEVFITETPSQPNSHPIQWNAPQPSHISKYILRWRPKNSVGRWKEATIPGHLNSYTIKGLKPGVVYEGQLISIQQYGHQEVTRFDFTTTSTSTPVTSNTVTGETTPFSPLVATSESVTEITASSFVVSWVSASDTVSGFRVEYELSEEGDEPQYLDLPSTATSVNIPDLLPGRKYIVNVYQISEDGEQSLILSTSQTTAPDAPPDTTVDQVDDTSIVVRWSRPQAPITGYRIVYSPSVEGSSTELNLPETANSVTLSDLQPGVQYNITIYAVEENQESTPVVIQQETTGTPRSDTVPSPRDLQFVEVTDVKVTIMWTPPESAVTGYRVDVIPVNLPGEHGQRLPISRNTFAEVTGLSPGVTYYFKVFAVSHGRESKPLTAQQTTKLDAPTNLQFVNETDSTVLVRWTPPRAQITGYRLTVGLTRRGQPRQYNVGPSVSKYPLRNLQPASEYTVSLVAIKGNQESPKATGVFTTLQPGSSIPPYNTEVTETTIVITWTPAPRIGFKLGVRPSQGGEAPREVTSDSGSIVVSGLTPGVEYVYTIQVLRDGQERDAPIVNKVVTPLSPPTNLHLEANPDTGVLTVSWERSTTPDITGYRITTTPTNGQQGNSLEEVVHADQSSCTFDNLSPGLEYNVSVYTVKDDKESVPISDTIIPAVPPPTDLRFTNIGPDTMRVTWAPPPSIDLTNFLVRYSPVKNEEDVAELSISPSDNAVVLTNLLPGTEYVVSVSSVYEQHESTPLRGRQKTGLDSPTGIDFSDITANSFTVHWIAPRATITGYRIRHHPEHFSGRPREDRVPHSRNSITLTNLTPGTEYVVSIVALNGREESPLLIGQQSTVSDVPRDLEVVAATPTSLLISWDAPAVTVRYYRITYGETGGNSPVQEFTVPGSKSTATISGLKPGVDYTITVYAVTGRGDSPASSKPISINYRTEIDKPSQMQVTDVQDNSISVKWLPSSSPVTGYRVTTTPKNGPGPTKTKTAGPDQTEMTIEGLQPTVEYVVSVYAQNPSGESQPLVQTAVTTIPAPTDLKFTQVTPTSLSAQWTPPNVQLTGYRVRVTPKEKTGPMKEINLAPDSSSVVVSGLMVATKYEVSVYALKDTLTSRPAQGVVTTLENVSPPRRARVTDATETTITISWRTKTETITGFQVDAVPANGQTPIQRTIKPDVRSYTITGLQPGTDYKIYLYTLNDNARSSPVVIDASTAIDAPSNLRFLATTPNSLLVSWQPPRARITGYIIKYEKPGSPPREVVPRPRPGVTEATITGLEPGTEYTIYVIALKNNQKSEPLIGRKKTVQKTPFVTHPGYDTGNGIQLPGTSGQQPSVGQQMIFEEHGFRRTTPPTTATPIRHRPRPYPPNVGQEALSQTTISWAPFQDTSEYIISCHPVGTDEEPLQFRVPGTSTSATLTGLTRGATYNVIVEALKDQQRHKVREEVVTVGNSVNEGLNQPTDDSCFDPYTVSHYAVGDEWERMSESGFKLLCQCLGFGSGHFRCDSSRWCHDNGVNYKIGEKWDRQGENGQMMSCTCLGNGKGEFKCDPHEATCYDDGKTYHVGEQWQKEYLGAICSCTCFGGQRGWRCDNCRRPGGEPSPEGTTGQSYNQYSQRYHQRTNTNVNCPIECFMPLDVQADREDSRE
T2 sequence (P02751 291-630 limits assumed): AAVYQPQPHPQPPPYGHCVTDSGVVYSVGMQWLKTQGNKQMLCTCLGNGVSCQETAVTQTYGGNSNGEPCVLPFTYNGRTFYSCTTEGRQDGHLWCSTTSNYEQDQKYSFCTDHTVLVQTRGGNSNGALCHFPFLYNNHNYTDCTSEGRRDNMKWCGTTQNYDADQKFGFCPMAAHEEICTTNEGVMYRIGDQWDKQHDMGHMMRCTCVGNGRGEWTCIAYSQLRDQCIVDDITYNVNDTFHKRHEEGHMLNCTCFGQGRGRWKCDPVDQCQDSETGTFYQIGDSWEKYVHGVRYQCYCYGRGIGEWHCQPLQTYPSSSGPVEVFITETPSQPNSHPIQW
T3 sequence (P02751 32-290 limits assumed): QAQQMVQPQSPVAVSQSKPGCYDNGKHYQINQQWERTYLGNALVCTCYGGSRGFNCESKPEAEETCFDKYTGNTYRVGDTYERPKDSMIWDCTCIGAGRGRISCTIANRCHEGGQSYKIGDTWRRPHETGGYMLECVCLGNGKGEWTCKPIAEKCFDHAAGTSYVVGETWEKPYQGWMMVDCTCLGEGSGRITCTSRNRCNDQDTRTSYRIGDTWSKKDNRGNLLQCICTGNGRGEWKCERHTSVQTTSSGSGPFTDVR

B1: FlpA-D3-GST (aa232-410) (other)
chain: PPQVEHLSASTDGSSKIILTWDAPTYEDFSYYKVYSTSSSFLPFSVLAKTDKNSYEDIVEGAGKSKYYKVTMVDKDGLESPMPKDGVEGKTLGNPLAPSIILAQSTSEGINLEWSDNDTRAVEYEVRRYGGEQNAVFKGIKEKRLKDVKALPGVEYSYEVIAIDSAGLRSEPSSKVKAA
notes: not shown: glutathione S-transferase (GST) tag of vector pGEX-5x-1, N-terminal
B1: no binding [1]; no binding (tested: up to 1000 nM) [2].

B2: CadF peptide FRLS- (aa118-133) (peptide)
peptide: YDNKSGGFGHYGAGVK
notes: Synthetic negative control peptide; also called CadF FRLS^-
B2: no binding [3].

B3: FlpA-D2-GST (aa135-226) (other)
chain: RLEAVPFVQAVTNLPNRIKLIWRPHPDFRVDSYIIERTKGDDKEFKKIAEVKNRLNAEYIDSDLKPNENSSYRIIAVSFNGIKSGSSQVVSS
notes: also called FlpA domain 2; not shown: glutathione S-transferase (GST) tag of vector pGEX-5x-1, N-terminal
B3: no binding (tested: up to 1000 nM) [4]; binds [5]; no binding (tested: up to 1000 nM) [6].

B4: FlpA peptide P3 (D165-I194) (peptide)
peptide: DSYIIERTKGDDKEFKKIAEVKNRLNAEYI
notes: Synthetic 30mer of FlpA-D2
B4: no binding (tested: Fn up to 20 µg/ml) [3].

B5: FlpA peptide P7 (F141-R157) (peptide)
peptide: FVQAVTNLPNRIKLIWR
notes: Synthetic peptide
B5: no binding [3].

B6: FlpA-GST (aa35-410) (other)
chain: PAVNESLPKVESLKSLSDMSNIAFEWEPLYNENIKGFYLYRSSDENPDFKLVGTIKDKFQTHYVDTKLEPGTKYRYMMKSFNEQGQISEDGKVIEVSTAPRLEAVPFVQAVTNLPNRIKLIWRPHPDFRVDSYIIERTKGDDKEFKKIAEVKNRLNAEYIDSDLKPNENSSYRIIAVSFNGIKSGSSQVVSSTSKALPPQVEHLSASTDGSSKIILTWDAPTYEDFSYYKVYSTSSSFLPFSVLAKTDKNSYEDIVEGAGKSKYYKVTMVDKDGLESPMPKDGVEGKTLGNPLAPSIILAQSTSEGINLEWSDNDTRAVEYEVRRYGGEQNAVFKGIKEKRLKDVKALPGVEYSYEVIAIDSAGLRSEPSSKVKAA
notes: also called full-length FlpA-GST; FlpA full-length; not shown: glutathione S-transferase (GST) tag of vector pGEX-5x-1, N-terminal
B6: no binding [7]; no binding (tested: up to 1000 nM) [4]; no binding (tested: up to 1000 nM) [6].

B7: FlpA peptide P5 (D195-V224) (peptide)
peptide: DSDLKPNENSSYRIIAVSFNGIKSGSSQVV
notes: Synthetic 30mer of FlpA-D2; Used as a negative control in later ELISAs
B7: no binding [3].

B8: FlpA-D1-GST (aa35-132) (other)
chain: PAVNESLPKVESLKSLSDMSNIAFEWEPLYNENIKGFYLYRSSDENPDFKLVGTIKDKFQTHYVDTKLEPGTKYRYMMKSFNEQGQISEDGKVIEVST
notes: as for B1
B8: no binding [1]; no binding (tested: up to 1000 nM) [2].

B9: FlpA peptide P4 (K180-I209) (peptide)
peptide: KKIAEVKNRLNAEYIDSDLKPNENSSYRII
notes: Synthetic 30mer of FlpA-D2
B9: no binding [3].
